Assay results: patent US20200270351A1 (Janssen / Centocor, published 2020)

B1: JNJ-61186372 (JNJ-372), IgG1 anti-EGFR/c-Met bispecific antibody (bispecific antibody)
heavy 1: not shown
light 1: not shown
heavy 2: not shown
light 2: DIQMTQSPSSVSASVGDRVTITCRASQGISNWLAWFQHKPGKAPKLLIYAASSLLSGVPSRFSGSGSGTDFTLTISSLQPEDFATYYCQQANSFPITFGQGTRLEIKRTVAAPSVFIFPPSDEQLKSGTASVVCLLNNFYPREAKVQWKVDNALQSGNSQESVTEQDSKDSTYSLSSTLTLSKADYEKHKVYACEVTHQGLSSPVTKSFNRGEC
notes: Produced in a cell line incorporating low levels (<9%) of fucose
B2: JNJ-372.IgG2sigma (Fc effector silent JNJ-372) (bispecific antibody, V domains shown)
VH 1: QVQLVESGGGVVQPGRSLRLSCAASGFTFSTYGMHWVRQAPGKGLEWVAVIWDDGSYKYYGDSVKGRFTISRDNSKNTLYLQMNSLRAEDTAVYYCARDGITMVRGVMKDYFDYWGQGTLVTVSS
VL 1: AIQLTQSPSSLSASVGDRVTITCRASQDISSALVWYQQKPGKAPKLLIYDASSLESGVPSRFSGSESGTDFTLTISSLQPEDFATYYCQQFNSYPLTFGGGTKVEIK
VH 2: QVQLVQSGAEVKKPGASVKVSCETSGYTFTSYGISWVRQAPGHGLEWMGWISAYNGYTNYAQKLQGRVTMTTDTSTSTAYMELRSLRSDDTAVYYCARDLRGTNYFDYWGQGTLVTVSS
VL 2: DIQMTQSPSSVSASVGDRVTITCRASQGISNWLAWFQHKPGKAPKLLIYAASSLLSGVPSRFSGSGSGTDFTLTISSLQPEDFATYYCQQANSFPITFGQGTRLEIK
notes: Used AF488- or AF647-labeled in the assays; also called IgG2σ; EGFR/cMet IgG2G Ab

Molecular target: T1, mutant L858R/T790M EGFR on NCI-H1975 cells (human, UniProt P00533 25-1210)
T1 construct: whole, on cells; these cells carry both this EGFR and wild type c-Met; also called H1975 target cells; HER1
Test: confocal imaging of AF647-labeled antibody in co-culture of M1 or M2c macrophages and H1975 target cells (data not shown)
Protocol: Differentiated macrophages were harvested and plated onto CellCarrier96 ultra plates at 1,00,000 cells/well (Perkin-Elmer; Cat#6055302) overnight. Assays were performed using both adhered and non-adhered target cells. For assays with adhered target cells, the H1975 NucLight Red cells were plated at 20,000/well, adhered for 4 hours, then treated with labeled Ab cocktail for 1 hour at 4° C.

binding result | Binder
binds | B1
binds | B2
